Common to all, as to type: binding
The target in assay [1] is T1, PCSK9 (Homo sapiens, UniProt Q8NBP7). The assay is described as follows: HRP-labeled peptide pulled down with PCSK9-immobilized beads, chemiluminescence detection. To be noted: without presentation by cDNA-mRNA dimer, FIGS. 16, 17, 25. Here is the method: Peptide 1-1 and Peptide 2-1 were labeled via horseradish peroxidase (HRP)-labeled streptavidin. Each peptide of HRP-labeled Peptide 1-1 and Peptide 2-1 was pulled down with PCSK9-immobilized beads. HRP substrate was added to PCSK9-immobilized beads and chemiluminescence was detected using LuminoGraph III (ATTO).
T1 sequence (Q8NBP7 153-692): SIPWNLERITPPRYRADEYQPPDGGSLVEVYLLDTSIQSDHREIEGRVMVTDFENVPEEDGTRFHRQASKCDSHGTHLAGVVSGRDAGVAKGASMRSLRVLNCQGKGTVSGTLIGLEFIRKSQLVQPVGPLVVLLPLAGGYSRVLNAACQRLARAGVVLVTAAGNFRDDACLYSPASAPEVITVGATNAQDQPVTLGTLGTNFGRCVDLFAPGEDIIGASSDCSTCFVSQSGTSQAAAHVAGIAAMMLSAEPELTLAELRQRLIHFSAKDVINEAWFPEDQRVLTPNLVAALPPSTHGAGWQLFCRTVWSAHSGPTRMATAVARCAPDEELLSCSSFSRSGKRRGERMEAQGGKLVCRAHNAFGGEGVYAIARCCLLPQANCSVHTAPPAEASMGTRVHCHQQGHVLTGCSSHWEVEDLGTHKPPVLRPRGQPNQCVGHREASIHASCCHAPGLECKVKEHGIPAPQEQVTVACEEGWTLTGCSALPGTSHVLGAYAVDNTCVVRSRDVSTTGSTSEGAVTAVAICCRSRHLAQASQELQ
The PCSK9 binding activity of HRP-labeled Peptide 1-1 (monomer) and the dimer of Peptide 1-1 (Peptide A) were analyzed by PCSK9 pull-down and chemiluminescence detection.
Peptide C was labeled via HRP-labeled streptavidin. Based on the same method as in Experimental Example 7, the PCSK9 binding activity of HRP-labeled Peptide C was analyzed by PCSK9 pulldown and chemiluminescence detection.

In another assay the target is His-tagged PCSK9 (Homo sapiens, UniProt Q8NBP7). The assay is described as follows: His-tagged PCSK9 (HRP-conjugated anti-His-tag antibody) pulled down with peptide-immobilized streptavidin beads, chemiluminescence detection. Conditions: peptide on streptavidin beads pulls down His-tagged PCSK9; FIGS. 18 and 19. As to the method: Each of Peptide 1-1 and peptide 2-1 was conjugated to streptavidin beads. His-tagged PCSK9 was labeled via HRP-conjugated anti-His-tagged antibody. The complex of PCSK9 and HRP was pulled down with Peptide 1-1 or Peptide 2-1 immobilized beads. HRP substrates were added to the peptide-immobilized beads and chemiluminescence was detected using LuminoGraph III (ATTO).
Sequence of His-tagged PCSK9 (Q8NBP7 153-692): as above

The target of assay [2] is T1, PCSK9. The assay is described as follows: Collection rate of cDNA/mRNA presenting cyclized peptide against PCSK9-immobilized beads. Conditions: for collection rate against PCSK9, Peptide 2 (WT) versus Peptide 3 (C17S): FIG. 13, C17 replaced with serine. Here is the method:
Site-specific biotinylated human PCSK9 was immobilized on streptavidin-modified magnetic beads. Fc fusion protein of human PCSK9 was immobilized on protein A-modified magnetic beads. Immobilization of PCSK9 was confirmed by sodium dodecyl sulfate polyacrylamide gel electrophoresis and staining with Coomassie brilliant blue.
Each of the mRNA-presenting FNO2Ph and F5Ph cyclized peptide libraries was incubated with PCSK9-immobilized streptavidin-modified beads as positive selection. After removal of the supernatant, the beads were washed with HBS-T. cDNA encoding the peptide binding to the PCSK9-immobilized beads was PCR amplified with Taq DNA polymerase. The amplified PCR product was used for the next round of SELEX.
After the positive selection, cDNA encoding peptides that bind to PCSK9 immobilized beads was amplified by PCR and quantified by qPCR using SYBR green.
Each collection rate of the cDNA/mRNA presenting FNO2Ph cyclized peptide with the amino acid sequence of SEQ ID: 4 (hereafter referred to as Peptide 1) and the cDNA/mRNA presenting F5Ph cyclized peptide with the amino acid sequence of SEQ ID: 14 (hereafter referred to as Peptide 2) against PCSK9 was determined. […] beads were used as negative controls.
Peptide 3 (SEQ ID: 27) was prepared by replacing C17 in Peptide 2 (F5Ph is the first amino acid) with serine. Each collection rate of Peptide 2 (WT) and Peptide 3 (C17S) against PCSK9 was measured (FIG. 13).

Another assay relates to human IL-5. The assay is described as follows: Collection rate of cDNA/mRNA presenting cyclized peptide against IL-5. To be noted: compared with IL-5 non-immobilized beads (FIGS. 29 and 30). As to the method: We checked whether the screening in Experimental Example 2 is applicable to compounds other than human PCSK9. Screening was performed for peptides that bind to human IL-5 as compounds other than human PCSK9.
Sequence of human IL-5 (P05113 20-134): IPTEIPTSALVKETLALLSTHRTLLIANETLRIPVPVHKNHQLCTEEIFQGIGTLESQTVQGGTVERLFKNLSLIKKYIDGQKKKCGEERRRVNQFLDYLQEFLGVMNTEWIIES
Each collection rate of cDNA/mRNA presenting FNO2Ph cyclized peptide with the amino acid sequence of SEQ ID: 66 (hereafter referred to as Peptide 4) and cDNA/mRNA presenting F5Ph cyclized peptide with the amino acid sequence of SEQ ID: 69 (hereafter referred to as Peptide 5) against IL-5 was determined. IL-5 non-immobilized beads were used as a negative control. […] From the above, it was possible to screen for human IL-5 which is a compound other than human PCSK9.

*1 amine or outer side, *2 acyl side, *3 side chain or, on linkers, in order; H or OH if unused. Where no end group is shown, it is not given here. The star is where a group is joined. Lys(Biotin) = O=C(CCCC[C@@H]1SC[C@@H]2NC(=O)N[C@@H]21)NCCCC[C@H](N[*:1])C(=O)[*:2]; F5Ph = Fc1c(F)c(F)c(*)c(F)c1F; FNO2Ph = not defined here; Ahx = NCCCCCC(=O)O

In the case of “Peptide 2-1: chemically synthesized FNO2Ph cyclized peptide (as printed), SEQ ID: 14, C-terminal spacer of three Ahx and biotinylated lysine (RGHCWLYVYFPVRSLC-{Ahx-Ahx-Ahx-K(biotin)-NH2}; thioether (positions not given here); not fully specified (N-terminus, bridges); also: FNO2Ph cyclization, places not given here)”, the PCSK9 binding activity entry in the assay with PCSK9 [1] and in the assay with His-tagged PCSK9 was “have binding activity to PCSK9” throughout.

With “Peptide 2: F5Ph cyclized peptide with amino acid sequence of SEQ ID: 14 (RGHCWLYVYFPVRSLC), cDNA/mRNA presented (F5Ph-RGHCWLYVYFPVRSLC; thioether (positions not given here); not fully specified (bridges))”, the “collection rate against PCSK9, Peptide 2 (WT) versus Peptide 3 (C17S)” value with PCSK9 [2] is recorded as “C17 in Peptide 2 was found to be critical for Peptide 2 binding to PCSK9”. Further, in the assay with PCSK9 [2] (cDNA/mRNA presenting peptide, compared with negative control beads (FIGS. 10 and 11)), the “collection rate against PCSK9” value is “higher than that of the negative control”.

Turning to “Peptide 3: SEQ ID: 27; C17 in Peptide 2 (F5Ph is the first amino acid) replaced with serine (F5Ph-RGHCWLYVYFPVRSLS; thioether (positions not given here); not fully specified (bridges))”, in the assay with PCSK9 [2], the “collection rate against PCSK9, Peptide 2 (WT) versus Peptide 3 (C17S)” value was “C17 in Peptide 2 was found to be critical for Peptide 2 binding to PCSK9”.

As to “Peptide 4: FNO2Ph cyclized peptide with amino acid sequence of SEQ ID: 66 (LLLMWCAVLVVLRWRRR), cDNA/mRNA presented (bridge (positions not given here) via FNO2Ph; reading uncertain; also: FNO2Ph cyclization, places not given here)”, the “collection rate against IL-5” value with human IL-5 was “higher than those of the negative control”.

Consider “Peptide 5: F5Ph cyclized peptide with amino acid sequence of SEQ ID: 69 (HSPFTFQHC), cDNA/mRNA presented (bridge (positions not given here) via F5Ph; also: F5Ph cyclization, places not given here)”, for which, in the assay on human IL-5, the “collection rate against IL-5” value is listed as “higher than those of the negative control”.

For the substance “Peptide C: FNO2Ph cyclized peptide, SEQ ID: 35: two methionines of SEQ ID: 28 replaced with isoleucine; three Ahx spacer, biotinylated lysine (RWRFYSGIRNREIDC-{Ahx-Ahx-Ahx-Lys(Biotin)-NH2}; not fully specified (N-terminus, bridges); also: FNO2Ph cyclization, places not given here)”, in the assay with PCSK9 [1], the PCSK9 binding activity result is “have binding activity for PCSK9”.

The record behind these values is US20250026791A1, “CYCLIC PEPTIDE CYCLIZED IN AROMATIC NUCLEOPHILIC SUBSTITUTION REACTION, AND PEPTIDE LIBRARY, PRODUCTION METHOD, AND SCREENING METHOD FOR SAME” (UNIVERSITY OF YAMANASHI, priority 2021, published 2025).
